B1: recombinant CEACAM1 N-terminal domain with His tag (rCEACAM1-N-HIS), wildtype [human] / IgI3 domain of R28 (R28-IgI3), wildtype [Streptococcus pyogenes] (parent complex)
chain 1: AQLTTESMPFNVAEGKEVLLLVHNLPQQLFGYSWYKGERVDGNRQIVGYAIGTQQATPGPANSGRETIYPNASLLIQNVTQNDTGFYTLQVIKSDLVNEEATGQFHVY
chain 2: TAPTLTVTPEQQTVKVDEDITFTVTVEDENEVELGLDDLKAKYENDIIGARVKIKYLTKEPNKKVMEVTIMKATLADKGAITFTAKDKAGNQAEPKTVTINVLPLKDSNEPKLPSTGGS

Variants of: B1
Assay: Dynabead binding assay (Dynabeads coated with R28-IgI3, DB.R28IgI3, incubated with rCC1-N); parent: 33; read off a plot

Row | Variant | response
1 | chain 2 K40A | ~7
2 | chain 2 Y56A | ~7
3 | chain 2 I48A | ~5.5
4 | chain 2 I47A | ~5.5
5 | chain 2 E44A | ~40
6 | chain 2 I54A | ~19
7 | chain 2 K59A | ~21

Variants of: B1
Assay: Dynabead binding assay (Dynabeads coated with R28-IgI3, DB.R28IgI3, incubated with rCC1-N variants); parent: 23; read off a plot

Row | Variant | response
8 | chain 1 F30A | ~5.5
9 | chain 1 L96A | ~6
10 | chain 1 Q90A | ~10
11 | chain 1 Q45A | ~20
12 | chain 1 N98A | ~90
13 | chain 1 V97A | ~100
14 | chain 1 I92A | ~5

Source: article PMC10119177 (2023)
